# Residue numbers refer to the chain shown, from its start.
# T1: extracellular domain of human BCMA (human, UniProt Q02223 1-54)
# T1 construct: amine-linked to Octet AR2G tips; also called hsBCMA; BCMA (human)
# T1 sequence: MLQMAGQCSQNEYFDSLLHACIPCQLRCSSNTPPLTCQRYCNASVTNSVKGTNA
# B1: AB200-R1a-Fab(hCDR2) (Fab, V domains shown)
# VH: QVQLVQSGAEVKKPGSSVKVSCKASGGTFSNYWMHWVRQAPGQGLEWMGATYRGHSDTYYNQKFKGRVTITADKSTSTAYMELSSLRSEDTAVYYCARGAIYHGYDVLDNWGQGTLVTVSS
# VL: DIQMTQSPSSLSASVGDRVTITCSASQDISNYLNWYQQKPGKAPKLLIYAASSLQSGVPSRFSGSGSGTDFTLTISSLQPEDFATYYCQQYRKLPWTFGQGTKLEIKR
# B2: AB200-R1a-Fab_Vk1 (Fab, V domains shown)
# VH: B1 VH
# VL: B1 VL with S24R, N31S, A50Y, A51T, S53N, L54I, Q55H
# B3: AB200-R1a-Fab_VH49 (Fab, V domains shown)
# VH: B1 VH with M34I, T51S, L108I
# VL: B1 VL with S26T, A50F, A51T, S53N
# B4: AB200-R1a-Fab_VH21 (Fab, V domains shown)
# VH: B1 VH with W33A, H55Q, F64Y
# VL: B1 VL with S26T, A50F, A51T, S53N
# B5: AB200-R1a-Fab_VH16 (Fab, V domains shown)
# VH: B1 VH with N31T, G54I, K74E
# VL: B1 VL with S26T, A50F, A51T, S53N
# B6: AB200-R1a-Fab_VH18 (Fab, V domains shown)
# VH: B1 VH with R53K, K74E, D106E
# VL: B1 VL with S26T, A50F, A51T, S53N
# B7: AB200-R1a-Fab_VH32 (Fab, V domains shown)
# VH: B1 VH with G54S, G66S, L108I
# VL: B1 VL with S26T, A50F, A51T, S53N
# B8: AB200-R1a-Fab_VH8 (Fab, V domains shown)
# VH: B1 VH with G54S, K74E, Y102F
# VL: B1 VL with S26T, A50F, A51T, S53N
# B9: AB200-R1a-Fab_VH31 (Fab, V domains shown)
# VH: B1 VH with A50G, Y60F, Y105F
# VL: B1 VL with S26T, A50F, A51T, S53N
# B10: AB200-R1a-Fab_VH42 (Fab, V domains shown)
# VH: B1 VH with D57T, A100S, L108M
# VL: B1 VL with S26T, A50F, A51T, S53N
# B11: AB200-R1a-Fab_VH30 (Fab, V domains shown)
# VH: B1 VH with F29Y, S56T, L108M
# VL: B1 VL with S26T, A50F, A51T, S53N
# B12: AB200-R1a-Fab_VH4 (Fab, V domains shown)
# VH: B1 VH with S25T, D57N, N61D
# VL: B1 VL with S26T, A50F, A51T, S53N
# B13: AB200-R1a-Fab_VH34 (Fab, V domains shown)
# VH: B1 VH with W33Y, M34L, H103N
# VL: B1 VL with S26T, A50F, A51T, S53N
# B14: AB200-R1a-Fab_VH48 (Fab, V domains shown)
# VH: B1 VH with N31D, K63R, L108M
# VL: B1 VL with S26T, A50F, A51T, S53N
# B15: AB200-R1a-Fab_VH60 (Fab, V domains shown)
# VH: B1 VH with N31S, G54I, T58S
# VL: B1 VL with S26T, A50F, A51T, S53N
# B16: AB200-R1a-Fab_VH59 (Fab, V domains shown)
# VH: B1 VH with S25T, W33A, T51S
# VL: B1 VL with S26T, A50F, A51T, S53N
# B17: AB200-R1a-Fab_VH50 (Fab, V domains shown)
# VH: B1 VH with Y52F, G66S, I101V
# VL: B1 VL with S26T, A50F, A51T, S53N
# B18: AB200-R1a-Fab_VH20 (Fab, V domains shown)
# VH: B1 VH with Y52I, D57Q, K65Q
# VL: B1 VL with S26T, A50F, A51T, S53N
# B19: AB200-R1a-Fab_VH52 (Fab, V domains shown)
# VH: B1 VH with T28S, N31D, D57T
# VL: B1 VL with S26T, A50F, A51T, S53N
# B20: AB200-R1a-Fab_VH19 (Fab, V domains shown)
# VH: B1 VH with T28S, H35Q, A100S
# VL: B1 VL with S26T, A50F, A51T, S53N
# B21: AB200-R1a-Fab_VH44 (Fab, V domains shown)
# VH: B1 VH with A50G, K63R, V107I
# VL: B1 VL with S26T, A50F, A51T, S53N
# B22: AB200-R1a-Fab_VH26 (Fab, V domains shown)
# VH: B1 VH with T28S, G54I, Y59F
# VL: B1 VL with S26T, A50F, A51T, S53N
# B23: AB200-R1a-Fab_VH35 (Fab, V domains shown)
# VH: B1 VH with M34I, Y52F, R53K
# VL: B1 VL with S26T, A50F, A51T, S53N
# B24: AB200-R1a-Fab_VH27 (Fab, V domains shown)
# VH: B1 VH with S25T, T51I, K65R
# VL: B1 VL with S26T, A50F, A51T, S53N
# B25: AB200-R1a-Fab_VH23 (Fab, V domains shown)
# VH: B1 VH with W33Y, Y59F, N61A
# VL: B1 VL with S26T, A50F, A51T, S53N
# B26: AB200-R1a-Fab_VH54 (Fab, V domains shown)
# VH: B1 VH with S56G, Y59F, D109N
# VL: B1 VL with S26T, A50F, A51T, S53N
# B27: AB200-R1a-Fab_VH24 (Fab, V domains shown)
# VH: B1 VH with S30T, D57N, L108I
# VL: B1 VL with S26T, A50F, A51T, S53N
# B28: AB200-R1a-Fab_VH37 (Fab, V domains shown)
# VH: B1 VH with S30T, R53K, K65R
# VL: B1 VL with S26T, A50F, A51T, S53N
# B29: AB200-R1a-Fab_VH36 (Fab, V domains shown)
# VH: B1 VH with Y52F, Q62H, Y105F
# VL: B1 VL with S26T, A50F, A51T, S53N
# B30: AB200-R1a-Fab_VH40 (Fab, V domains shown)
# VH: B1 VH with Y32F, Q62H, D109E
# VL: B1 VL with S26T, A50F, A51T, S53N
# B31: AB200-R1a-Fab_VH57 (Fab, V domains shown)
# VH: B1 VH with F29Y, W33Y, D57E
# VL: B1 VL with S26T, A50F, A51T, S53N
# B32: AB200-R1a-Fab_VH38 (Fab, V domains shown)
# VH: B1 VH with Y60F, Y102F, H103N
# VL: B1 VL with S26T, A50F, A51T, S53N
# B33: AB200-R1a-Fab_VH33 (Fab, V domains shown)
# VH: B1 VH with S30T, Y32F, H55Q
# VL: B1 VL with S26T, A50F, A51T, S53N
# B34: AB200-R1a-Fab_VH2 (Fab, V domains shown)
# VH: B1 VH with K65Q, I101V, Y102F
# VL: B1 VL with S26T, A50F, A51T, S53N
# B35: AB200-R1a-Fab_VH17 (Fab, V domains shown)
# VH: B1 VH with N31S, N61A, D106E
# VL: B1 VL with S26T, A50F, A51T, S53N
# B36: AB200-R1a-Fab_VH56 (Fab, V domains shown)
# VH: B1 VH with M34I, K65R, A100T
# VL: B1 VL with S26T, A50F, A51T, S53N
# B37: AB200-R1a-Fab_VH15 (Fab, V domains shown)
# VH: B1 VH with F29Y, T58A, K63R
# VL: B1 VL with S26T, A50F, A51T, S53N
# B38: AB200-R1a-Fab_VH46 (Fab, V domains shown)
# VH: B1 VH with Y59N, F64Y, H103N
# VL: B1 VL with S26T, A50F, A51T, S53N
# B39: AB200-R1a-Fab_VH5 (Fab, V domains shown)
# VH: B1 VH with T58S, Y59N, Q62N
# VL: B1 VL with S26T, A50F, A51T, S53N
# B40: AB200-R1a-Fab_VH45 (Fab, V domains shown)
# VH: B1 VH with Q62N, D109E, N110D
# VL: B1 VL with S26T, A50F, A51T, S53N
# B41: AB200-R1a-Fab_VH13 (Fab, V domains shown)
# VH: B1 VH with D57T, N61A, F64Y
# VL: B1 VL with S26T, A50F, A51T, S53N
# Biological target: T1, extracellular domain of human BCMA
# Test: Octet BLI; Fab 200 nM
row,Binder,Kd
1,B1,2.14 nM
2,B2,1.75 nM

# Biological target: T2, extracellular domain of rhesus monkey BCMA (rhesus monkey, UniProt F7FFA0 1-53)
# T2 construct: extracellular domain; also called RhBCMA
# Test: Octet BLI; Fab 200 nM
# T2 sequence (F7FFA0 entry or part of it): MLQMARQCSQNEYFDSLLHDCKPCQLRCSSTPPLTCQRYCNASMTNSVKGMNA
row,Binder,Kd
1,B1,7.14 nM
2,B2,6.37 nM

# Biological target: T1, extracellular domain of human BCMA
# Test: Octet BLI; Fab 200 nM
# Remark: another data set of the same source
row,Binder,Kd
1,B3,6.72 nM
2,B4,5.23 nM
3,B5,14.3 nM
4,B6,7.73 nM
5,B7,1.09 nM
6,B8,0.948 nM
7,B9,9.06 nM
8,B10,28.4 nM
9,B11,22.3 nM
10,B12,5.45 nM
11,B13,18.9 nM
12,B14,34.5 nM
13,B15,13.6 nM
14,B16,26.2 nM
15,B17,4.67 nM
16,B18,10.5 nM
17,B19,18 nM
18,B20,18.5 nM
19,B21,29 nM
20,B22,0.926 nM

row,Binder,Kd
1,B23,8.5 nM
2,B24,3.8 nM
3,B25,20.4 nM
4,B26,12 nM
5,B27,13.1 nM
6,B28,5.28 nM
7,B29,28.1 nM
8,B30,17.2 nM
9,B31,11.1 nM
10,B32,4.12 nM
11,B33,1.43 nM
12,B34,2.85 nM
13,B35,82.7 nM
14,B36,20.7 nM
15,B37,11.7 nM
16,B38,11.6 nM
17,B39,21.1 nM
18,B40,21.1 nM
19,B41,5.38 nM

# Biological target: T2, extracellular domain of rhesus monkey …
# Test: Octet BLI; Fab 200 nM
# Remark: another data set of the same source
row,Binder,Kd
1,B3,15.6 nM
2,B4,11.1 nM
3,B5,15.2 nM
4,B6,10.6 nM
5,B7,4.17 nM
6,B8,3.14 nM
7,B9,19.2 nM
8,B10,15.5 nM
9,B11,28.2 nM
10,B12,13.7 nM
11,B13,13.2 nM
12,B14,25 nM
13,B15,17.8 nM
14,B16,28.3 nM
15,B17,9.65 nM
16,B18,15.1 nM
17,B19,24.6 nM
18,B20,35.6 nM
19,B21,8.61 nM
20,B22,2.31 nM

row,Binder,Kd
1,B23,9.49 nM
2,B24,7.84 nM
3,B25,19.9 nM
4,B26,20.8 nM
5,B27,24.5 nM
6,B28,10.4 nM
7,B29,45.4 nM
8,B30,45.3 nM
9,B31,12 nM
10,B32,12.1 nM
11,B33,5.12 nM
12,B34,11.1 nM
13,B35,70.2 nM
14,B36,18 nM
15,B37,17.1 nM
16,B38,20 nM
17,B39,23.4 nM
18,B40,44.9 nM
19,B41,12.9 nM
